Tests used:
[1] = target: T1, 4H370-bN; experiment: two-hybrid library CCNG1;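 note: natural log of median RNA to DNA barcode read ratio; higher means stronger binding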
T1 chain: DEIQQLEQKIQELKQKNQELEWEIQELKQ

[2] = target: T2, 4H3782-bN; experiment: two-hybrid library CCNG1;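 note: natural log of median RNA to DNA barcode read ratio; higher means stronger binding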
T2 chain: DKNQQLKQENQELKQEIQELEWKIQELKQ

[3] = target: T3, 4H3843-bN; experiment: two-hybrid library CCNG1;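 note: natural log of median RNA to DNA barcode read ratio; higher means stronger binding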
T3 chain: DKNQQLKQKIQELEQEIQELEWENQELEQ

[4] = target: T4, 4H4001-bN; experiment: two-hybrid library CCNG1;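 note: natural log of median RNA to DNA barcode read ratio; higher means stronger binding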
T4 chain: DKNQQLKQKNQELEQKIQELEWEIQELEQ

[5] = target: T5, 4H462-bN; experiment: two-hybrid library CCNG1;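 note: natural log of median RNA to DNA barcode read ratio; higher means stronger binding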
T5 chain: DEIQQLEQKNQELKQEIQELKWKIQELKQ

[6] = target: T6, 4H568-bN; experiment: two-hybrid library CCNG1;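 note: natural log of median RNA to DNA barcode read ratio; higher means stronger binding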
T6 chain: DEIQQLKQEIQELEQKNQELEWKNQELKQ

[7] = target: T7, 4H607-bN; experiment: two-hybrid library CCNG1
T7 chain: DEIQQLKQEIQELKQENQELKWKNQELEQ

[8] = target: T8, 4H687-bN; experiment: two-hybrid library CCNG1
T8 chain: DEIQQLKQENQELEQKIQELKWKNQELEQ

[9] = target: T9, 4H72-bN; experiment: two-hybrid library CCNG1
T9 chain: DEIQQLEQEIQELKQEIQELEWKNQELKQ

[10] = target: T10, 4H797-bN; experiment: two-hybrid library CCNG1
T10 chain: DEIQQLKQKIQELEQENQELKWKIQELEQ

[11] = target: T11, 4H883-bN; experiment: two-hybrid library CCNG1
T11 chain: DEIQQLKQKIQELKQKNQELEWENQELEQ

[12] = target: T12, 4H918-bN; experiment: two-hybrid library CCNG1
T12 chain: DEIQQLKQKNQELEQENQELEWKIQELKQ

[13] = target: T13, 4H953-bN; experiment: two-hybrid library CCNG1
T13 chain: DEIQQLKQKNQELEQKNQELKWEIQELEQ

[14] = target: T14, 4H967-bN; experiment: two-hybrid library CCNG1
T14 chain: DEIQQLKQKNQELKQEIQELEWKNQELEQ

[15] = target: T15, AP7-AA; experiment: two-hybrid library CCmax
T15 chain: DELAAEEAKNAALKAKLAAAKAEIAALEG

[16] = target: T16, AP8-AA; experiment: two-hybrid library CCmax; details: mean of both orientations
T16 chain: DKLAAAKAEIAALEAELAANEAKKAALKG

[17] = target: GCN2_T; experiment: two-hybrid library CCmax
[18] = target: T17, P1-AA; experiment: two-hybrid library CCmax; details: mean of both orientations
T17 chain: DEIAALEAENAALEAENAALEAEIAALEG

[19] = target: T18, P10-AA; experiment: two-hybrid library CCmax; details: mean of both orientations
T18 chain: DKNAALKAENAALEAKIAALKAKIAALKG

[20] = target: T19, P11-AA; experiment: two-hybrid library CCmax; details: mean of both orientations
T19 chain: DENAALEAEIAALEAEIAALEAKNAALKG

[21] = target: T20, P12-AA; experiment: two-hybrid library CCmax; details: mean of both orientations
T20 chain: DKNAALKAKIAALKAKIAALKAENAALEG

[22] = target: T21, P2-AA; experiment: two-hybrid library CCmax; details: mean of both orientations
T21 chain: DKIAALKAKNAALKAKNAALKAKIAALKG

[23] = target: T22, P3-AA; experiment: two-hybrid library CCmax; details: mean of both orientations
T22 chain: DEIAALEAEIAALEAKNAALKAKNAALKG

[24] = target: T23, P4-AA; experiment: two-hybrid library CCmax; details: mean of both orientations
T23 chain: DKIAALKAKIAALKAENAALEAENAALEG

[25] = target: T24, P7-AA; experiment: two-hybrid library CCmax; details: mean of both orientations
T24 chain: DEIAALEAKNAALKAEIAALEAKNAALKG

[26] = target: T25, P8-AA; experiment: two-hybrid library CCmax; details: mean of both orientations
T25 chain: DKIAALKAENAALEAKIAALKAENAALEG

[27] = target: T26, P9-AA; experiment: two-hybrid library CCmax; details: mean of both orientations
T26 chain: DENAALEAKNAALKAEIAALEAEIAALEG

[28] = target: T27, 4H2760-AA; experiment: two-hybrid library CCmax
T27 chain: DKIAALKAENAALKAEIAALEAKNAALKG

[29] = target: T28, 4H2774-AA; experiment: two-hybrid library CCmax; details: mean of both orientations
T28 chain: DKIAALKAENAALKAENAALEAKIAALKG

[30] = target: T29, 4H2903-AA; experiment: two-hybrid library CCmax; details: mean of both orientations
T29 chain: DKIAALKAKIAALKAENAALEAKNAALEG

[31] = target: T30, 4H2947-AA; experiment: two-hybrid library CCmax; details: mean of both orientations
T30 chain: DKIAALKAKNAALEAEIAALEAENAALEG

[32] = target: T31, 4H2961-AA; experiment: two-hybrid library CCmax; details: mean of both orientations
T31 chain: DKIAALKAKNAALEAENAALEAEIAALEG

[33] = target: T32, 4H3049-AA; experiment: two-hybrid library CCmax; details: mean of both orientations
T32 chain: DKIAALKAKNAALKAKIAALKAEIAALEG

[34] = target: T33, 4H3094-AA; experiment: two-hybrid library CCmax; details: mean of both orientations
T33 chain: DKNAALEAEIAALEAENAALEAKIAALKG

[35] = target: T34, 4H324-AA; experiment: two-hybrid library CCmax; details: mean of both orientations
T34 chain: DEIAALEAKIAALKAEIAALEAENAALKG

[36] = target: T35, 4H341-AA; experiment: two-hybrid library CCmax; details: mean of both orientations
T35 chain: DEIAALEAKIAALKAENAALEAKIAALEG

[37] = target: T36, 4H3449-AA; experiment: two-hybrid library CCmax; details: mean of both orientations
T36 chain: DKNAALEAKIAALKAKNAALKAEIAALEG

[38] = target: T37, 4H3619-AA; experiment: two-hybrid library CCmax; details: mean of both orientations
T37 chain: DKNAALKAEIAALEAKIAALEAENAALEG

[39] = target: T38, 4H3629-AA; experiment: two-hybrid library CCmax; details: mean of both orientations
T38 chain: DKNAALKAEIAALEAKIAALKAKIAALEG

[40] = target: T39, 4H3777-AA; experiment: two-hybrid library CCmax; details: mean of both orientations
T39 chain: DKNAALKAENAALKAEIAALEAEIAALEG

[41] = target: T40, 4H380-AA; experiment: two-hybrid library CCmax; details: mean of both orientations
T40 chain: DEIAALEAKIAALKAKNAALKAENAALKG

[42] = target: T41, 4H3915-AA; experiment: two-hybrid library CCmax; details: mean of both orientations
T41 chain: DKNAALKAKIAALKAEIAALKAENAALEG

[43] = target: T42, 4H3974-AA; experiment: two-hybrid library CCmax; details: mean of both orientations
T42 chain: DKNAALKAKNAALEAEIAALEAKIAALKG

[44] = target: T43, 4H432-AA; experiment: two-hybrid library CCmax; details: mean of both orientations
T43 chain: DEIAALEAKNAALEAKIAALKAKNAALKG

[45] = target: T44, 4H446-AA; experiment: two-hybrid library CCmax; details: mean of both orientations
T44 chain: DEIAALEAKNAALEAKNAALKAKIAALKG

[46] = target: T45, 4H63-AA; experiment: two-hybrid library CCmax; details: mean of both orientations
T45 chain: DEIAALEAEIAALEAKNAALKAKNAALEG

DEIQQLEQKIQELKQKNQELEWEIQELKQ [4H370-bN]
interaction score [1]: 0.966 | interaction score [2]: -0.329 | interaction score [3]: -0.715 | interaction score [4]: -0.655 | interaction score [5]: -1.49 | interaction score [6]: 0.649 | interaction score [7]: -0.679 | interaction score [8]: -1.17 | interaction score [9]: -0.189 | interaction score [10]: -0.598 | interaction score [11]: -1.39 | interaction score [12]: -0.831 | interaction score [13]: -1.96 | interaction score [14]: -0.814

DELAAEEAKNAALKAKLAAAKAEIAALEG [AP7-AA]
interaction score [15]: -1.7 | interaction score [16]: -2.81 | interaction score [17]: -2.13 | interaction score [18]: -1.52 | interaction score [19]: -0.0128 | interaction score [20]: -0.965 | interaction score [21]: -1.62 | interaction score [22]: -1.94 | interaction score [23]: -1.88 | interaction score [24]: -1.42 | interaction score [25]: -2.09 | interaction score [26]: -0.66 | interaction score [27]: -2.24

DKIAALKAENAALKAEIAALEAKNAALKG [4H2760-AA]
interaction score [28]: 0.876 | interaction score [29]: -1.29 | interaction score [30]: -1.32 | interaction score [31]: 0.202 | interaction score [32]: -1.97 | interaction score [33]: 1.62 | interaction score [34]: 2.17 | interaction score [35]: -1.09 | interaction score [36]: -0.788 | interaction score [37]: -1.27 | interaction score [38]: -1.77 | interaction score [39]: -1.14 | interaction score [40]: -0.779 | interaction score [41]: -1.48 | interaction score [42]: -1.44 | interaction score [43]: -1.69 | interaction score [44]: -0.454 | interaction score [45]: -1.49 | interaction score [46]: -1.64

Source: article PMC10397247
